Target: the molecule itself
Experiment: cryo-EM structure

B1: Rice OsPHT1;11 (OsPT11) (natural protein)
chain: MADADGGSNLAVLDALDSARTQMYHMKAIVIAGMGFFTDAYDLFCISTVSKLLGRLYYQPDGSTDSKPGALSKTANNMVIGVALVGTLMGQLVFGYFGDKLGRKRVYGVTLILMAACAIGSGLSFGSSRKAVIGTLCFFRFWLGFGIGGDYPLSATIMSEYSNKKTRGAFIAAVFAMQGVGIIFAGLVSMIVSSIFLTYNKAPSYKGNHDLSRQMPAADYVWRIVLMIGAFPALATFYWRMKMPETARYTAIIDGNAKQAANDMQKVLSIEIEAEQEKLAKFNAANNYPLLSMEFARRHGLHLIGTTTTWFLLDIAFYSQNLTQKDIFPAMGLISGAAEVNALTEMFQISKASFLVALLGTFPGYWVTVALIDKMGRYMIQLIGFFMMSMFMLAMGILYDYLKTHHFLFGLLYALTFFFANFGPNSTTFVLPAELFPTRVRSTCHAISAAAGKAGAIVAAFGIQKLTYNSQVKSIKKALIILSITNMLGFFFTFLVPETMGRSLEEISGEDGNTGAGGGGAPAAANAGVGVSASDVSRDEKFPASSTEWQTSMHA
stoichiometry N: 2
